Measured values from CN110840830A (BEIJING DONGFANG BIOTECH CO LTD, dated 2020).

Experiments:
[1] = target: T1, 细胞表面CTLA-4抗原 (CTLA-4 on cells) (UniProt P16410 36-223, limits assumed); assay: cell-based or functional assay
T1 sequence (looked up): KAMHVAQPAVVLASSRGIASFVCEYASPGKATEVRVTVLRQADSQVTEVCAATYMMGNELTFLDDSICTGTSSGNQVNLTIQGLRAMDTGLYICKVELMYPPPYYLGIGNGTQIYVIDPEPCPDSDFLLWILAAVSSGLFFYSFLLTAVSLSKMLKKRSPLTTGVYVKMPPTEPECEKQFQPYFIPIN

[2] = target: T1, 细胞表面CTLA-4抗原 (CTLA-4 on cells); assay: flow cytometry on CHO cells over-expressing CTLA-4, Alexa488 anti-human IgG Fc
[3] = target: T2, CTLA-4 (antigen coated on ELISA plates and immunotubes) (UniProt P16410 36-161, limits assumed); assay: ELISA, full antibody on coated CTLA-4, anti-human IgG-HRP
T2 construct: also called CTLA-4抗原; 细胞毒性T淋巴细胞相关抗原4
T2 sequence (looked up): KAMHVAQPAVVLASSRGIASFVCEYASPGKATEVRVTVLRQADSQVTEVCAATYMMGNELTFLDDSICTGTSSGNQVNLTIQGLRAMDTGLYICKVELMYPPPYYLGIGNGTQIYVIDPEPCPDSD

B1: 全抗N-2 (antibody, human IgG1, kappa, V domains shown)
VH: QVQLVESGGGVVQPGRSLRLSCAASGFTFSSIFKRWVRQAPGKGLEWVTFISYDGLDHINGDSVKGRFTISRDNSKNTLYLQMNSLRAEDTAIYYCARRYRWWGKAMDYWGQGTLVTVSS
VL: DIVMTQSPLSLPVTPGEPASISCKSSQSVIDSKGYTYLGWYLQKPGQSPQLLIYLGTQKSSGVPDRFSGSGSGTDFTLKISRVEAEDVGVYYCLQRGHIPITFGQGTKLEIKR
notes: also called 抗CTLA-4全抗体N-2
Q: With B1 as the binder, how does the “混合淋巴细胞反应(MLR), CD4+ T细胞增殖 (cck8), EC50” value [1] read?
A: Its value is 8.31 nM.

Q: What about the EC50 [2] of the same binder?
A: The EC50 was 8.95 ng/mL.

Q: And the EC50 [3]?
A: Its EC50 is 0.11 µg/mL.

B2: 全抗N-8 (antibody, human IgG1, kappa, V domains shown)
VH: QVQLVESGGGVVQPGRSLRLSCAASGFTFSGFSICWVRQAPGKGLEWVTFISYDGLLFLIADSVKGRFTISRDNSKNTLYLQMNSLRAEDTAIYYCARRYRWWGKAMDYWGQGTLVTVSS
VL: DIVMTQSPLSLPVTPGEPASISCRSSQTVFDSHGQTYLQWYLQKPGQSPQLLIYGASRQVSGVPDRFSGSGSGTDFTLKISRVEAEDVGVYYCMQVWHLPITFGQGTKLEIKR
notes: also called 抗CTLA-4全抗体N-8
Q: B2 was tested. Which “混合淋巴细胞反应(MLR), CD4+ T细胞增殖 (cck8), EC50” value [1] did it give?
A: Its value is 7.32 nM.

Q: And the EC50 [2]?
A: Its EC50 is 6.49 ng/mL.

Q: What about the EC50 [3] of the same binder?
A: The EC50 was 0.164 µg/mL.

B3: 全抗N-7 (antibody, human IgG1, kappa, V domains shown)
VH: QVQLVESGGGVVQPGRSLRLSCAASGFTFSGIYCNWVRQAPGKGLEWVTFISYDSILNVIADSVKGRFTISRDNSKNTLYLQMNSLRAEDTAIYYCARRYRWWGKAMDYWGQGTLVTVSS
VL: DIVMTQSPLSLPVTPGEPASISCRSSQTVFDSHGQTYLQWYLQKPGQSPQLLIYGASRQVSGVPDRFSGSGSGTDFTLKISRVEAEDVGVYYCMQVWHLPITFGQGTKLEIKR
notes: also called 抗CTLA-4全抗体N-7
Q: Which results are given for B3?
A: 混合淋巴细胞反应(MLR), CD4+ T细胞增殖 (cck8), EC50 [1]: 6.31 nM; EC50 [2]: 7.92 ng/mL; EC50 [3]: 0.0865 µg/mL

B4: 全抗N-3 (antibody, human IgG1, kappa, V domains shown)
VH: QVQLVESGGGVVQPGRSLRLSCAASGFTFSGIFSSWVRQAPGKGLEWVTFISYDSLKQKDGDSVKGRFTISRDNSKNTLYLQMNSLRAEDTAIYYCARRYRWWGKAMDYWGQGTLVTVSS
VL: DIVMTQSPLSLPVTPGEPASISCKSSQSVIDSKGYTYLGWYLQKPGQSPQLLIYLGTQKSSGVPDRFSGSGSGTDFTLKISRVEAEDVGVYYCLQRGHIPITFGQGTKLEIKR
notes: also called 抗CTLA-4全抗体N-3
Q: B4 was tested. Which “混合淋巴细胞反应(MLR), CD4+ T细胞增殖 (cck8), EC50” value [1] did it give?
A: The value was 14.2 nM.

Q: And the EC50 [2]?
A: The EC50 was 8.96 ng/mL.

Q: What about the EC50 [3] of the same binder?
A: Its EC50 is 0.264 µg/mL.

B5: 全抗N-1 (antibody, human IgG1, kappa, V domains shown)
VH: QVQLVESGGGVVQPGRSLRLSCAASGFTFSGYNGNWVRQAPGKGLEWVTFISYDGLNDVKADSVKGRFTISRDNSKNTLYLQMNSLRAEDTAIYYCARRYRWWGKAMDYWGQGTLVTVSS
VL: DIVMTQSPLSLPVTPGEPASISCKSSQSVIDSKGYTYLGWYLQKPGQSPQLLIYLGTQKSSGVPDRFSGSGSGTDFTLKISRVEAEDVGVYYCLQRGHIPITFGQGTKLEIKR
notes: also called 抗CTLA-4全抗体N-1
Q: Which results are given for B5?
A: 混合淋巴细胞反应(MLR), CD4+ T细胞增殖 (cck8), EC50 [1]: 7.34 nM; EC50 [2]: 7.09 ng/mL; EC50 [3]: 0.163 µg/mL

B6: 全抗N-4 (antibody, human IgG1, kappa, V domains shown)
VH: QVQLVESGGGVVQPGRSLRLSCAASGFTFSAFYNPWVRQAPGKGLEWVTFISYDGVYFHFGDSVKGRFTISRDNSKNTLYLQMNSLRAEDTAIYYCARRYRWWGKAMDYWGQGTLVTVSS
VL: DIVMTQSPLSLPVTPGEPASISCKSSQSVIDSKGYTYLGWYLQKPGQSPQLLIYLGTQKSSGVPDRFSGSGSGTDFTLKISRVEAEDVGVYYCLQRGHIPITFGQGTKLEIKR
notes: also called 抗CTLA-4全抗体N-4
Q: How did the “混合淋巴细胞反应(MLR), CD4+ T细胞增殖 (cck8), EC50” value [1] turn out when B6 was run?
A: Its value is 15.4 nM.

Q: What about the EC50 [2] of the same binder?
A: Its EC50 is 11.1 ng/mL.

Q: And the EC50 [3]?
A: The EC50 was 0.0922 µg/mL.

B7: 全抗N-6 (antibody, human IgG1, kappa, V domains shown)
VH: QVQLVESGGGVVQPGRSLRLSCAASGFTFSSNTLRWVRQAPGKGLEWVTFISYDSLFLDQGDSVKGRFTISRDNSKNTLYLQMNSLRAEDTAIYYCARRYRWWGKAMDYWGQGTLVTVSS
VL: DIVMTQSPLSLPVTPGEPASISCRSSQTVFDSHGQTYLQWYLQKPGQSPQLLIYGASRQVSGVPDRFSGSGSGTDFTLKISRVEAEDVGVYYCMQVWHLPITFGQGTKLEIKR
notes: also called 抗CTLA-4全抗体N-6
Q: For B7, which “混合淋巴细胞反应(MLR), CD4+ T细胞增殖 (cck8), EC50” value [1] is on record?
A: Its value is 6.67 nM.

Q: And the EC50 [2]?
A: Its EC50 is 7.05 ng/mL.

Q: And the EC50 [3]?
A: Its EC50 is 0.127 µg/mL.

B8: 全抗N-5 (antibody, human IgG1, kappa, V domains shown)
VH: QVQLVESGGGVVQPGRSLRLSCAASGFTFSGFFNRWVRQAPGKGLEWVTFISYDALKDFYADSVKGRFTISRDNSKNTLYLQMNSLRAEDTAIYYCARRYRWWGKAMDYWGPGTLVTVSS
VL: DIVMTQSPLSLPVTPGEPASISCRSSQTVFDSHGQTYLQWYLQKPGQSPQLLIYGASRQVSGVPDRFSGSGSGTDFTLKISRVEAEDVGVYYCMQVWHLPITFGQGTKLEIKR
notes: also called 抗CTLA-4全抗体N-5; N-5的全抗体
Q: Which “混合淋巴细胞反应(MLR), CD4+ T细胞增殖 (cck8), EC50” value [1] does the source give for B8 here?
A: Its value is 4.95 nM.

Q: What about the EC50 [2] of the same binder?
A: Its EC50 is 6.12 ng/mL.

Q: And the EC50 [3]?
A: Its EC50 is 0.0689 µg/mL.
